In patent US8008452B2, “Phosphorylated Ndr kinase” (Novartis Forschungesstiftung, Zweigniederlassung Friedrich …, priority 2002, dated 2011):

Experiments:
GST-NDR1 = GST-NDR1 kinase assay (peptide kinase assay); format: biochemical, human; design: Specific activity of GST-NDR1 variants, CTRL / Specific activity of GST-NDR1 variants, −S100B / Specific activity of GST-NDR1 variants, +S100B: unit not given here; conditions: for Specific activity of GST-NDR1 variants, −S100B: autophosphorylated 2 h in the absence of CaCl2 and S100B; for Specific activity of GST-NDR1 variants, +S100B: autophosphorylated 2 h in the presence of 1 mM CaCl2 and 10 mM bovine S100B; for Specific activity of GST-NDR1 variants, CTRL: left without further treatment
Description: 1 microgram of purified recombinant GST-NDR1 wild type and mutants (without further treatment or autophosphorylated for 2 h in the presence or absence of 1 mM CaCl2 and […] (Sigma)) were assayed in 20 microliter of reaction mixture containing 20 mM Tris-HCl pH 7.5, 10 mM MgCl2, 1 mM DTT, 100 microM [gamma-^32P]ATP (˜0.5 microCi/microliter), and 1 mM NDR1 substrate peptide ([…]; SEQ ID NO:22). After 30 mins incubation at 30° C., reactions were stopped with 50 mM EDTA, and 10 microliters of reaction mixture were spotted onto 2 cm^2 squares of P81 phosphocellulose paper (Whatman). These were subsequently washed for 4×5 min and 3×20 min in 1% phosphoric acid and once in acetone before counting in a liquid scintillation counter. One unit of NDR1 activity was defined as the amount which catalyses the phosphorylation of 1 nmol peptide substrate in 1 min.
Specific activity of GST-NDR1 mutants was also measured by a peptide kinase assay as described above. For this purpose, 1 microgram of purified GST-NDR1 wild type and alanine mutants were left without further treatment or autophosphorylated for 2 h in the presence or absence of 1 mM CaCl2 and […].

HA-NDR1 = HA-NDR1 kinase assay on 12CA5 immunoprecipitates from transfected, treated COS-1 cells; format: cell-based, human; design: kinase activity of HA-NDR1 variants, −OA: unit not given here; conditions: COS-1 cells; for kinase activity of HA-NDR1 variants, +OA: 1 microM okadaic acid 1 h; for kinase activity of HA-NDR1 variants, −OA: solvent alone 1 h
Description: In some experiments, the cells were treated for 60 min with 1 microM okadaic acid in 0.1% N,N-dimethylformamide (DMF) (Alexis Corp.), 50 microM BAPTA-AM (1,2-bis (o-aminophenoxy) ethane-N,N,N′,N′-tetraacetic acid tetra (acetoxy-methyl)ester) in 0.1% diimethylsulfoxide (DMSO; Sigma), or 20 microM thapsigargin in 0.1% DMSO (Alomone) 24 hours after transfection.
Transfected and treated COS-1 cells were washed once with ice-cold PBS, and harvested by rubber policeman in 1 ml ice-cold PBS containing 1 mM Na3VO4 and 20 mM beta-glycerophosphate before lysis in 500 microliters of IP buffer (20 mM Tris-HCl pH 8.0, 150 mM NaCl, 1% Nonidet P-40, 10% glycerol, 1 mM Na3VO4, 20 mM beta-glycerolphosphate, 1 microM microcystin-LR, 50 mM NaF, 0.5 mM PMSF, 4 microM leupeptin, 1 mM benzamidine, and 1 tablet/10 ml IP of Complete protease inhibitors (Roche)). Lysates were centrifuged at 20 000 g for 20 min and triplicate aliquots (200 microg) of supernatant were precleared with protein A-Sepharose (Amersham Pharmacia Biotech) for 60 min and mixed subsequently for 3 h at 4° C. with 12CA5 antibody prebound to protein A-Sepharose (˜1 microg antibody bound to 2 microl beads). The beads were then washed twice with IP buffer, once for 10 min with IP buffer containing 1 M NaCl, once again for 10 min with IP buffer, and finally twice with 20 mM Tris-HCl pH 7.5 containing 4 microM leupeptin and 1 mM benzamidine. Thereafter, beads were resuspended in 30 microliters buffer containing 20 mM Tris-HCl pH 7.5, 10 mM MgCl2, 1 mM DTT, 100 microM [gamma-^32P]ATP (˜0.1 microCi/microliter), 1 microM cAMP-dependent protein kinase inhibitor peptide PKI (Bachem), 4 microM leupeptin, 1 mM benzamidine, 1 microM microcystin-LR, and 1 mM NDR1 substrate peptide ([…]). After 60 min incubation at 30° C., 15 microliters of supernatant were removed, and phosphate incorporation into the substrate peptide determined as described for GST-NDR1 above.
COS-1 cells expressing either wild type HA-NDR1 or the indicated mutants were treated for 1 h with 1 microM okadaic acid or with solvent alone. HA-tagged NDR kinase variants were then immunoprecipitated (out of 100 microgram of detergent extracts) with 12CA5 monoclonal antibody and assayed for kinase activity by a peptide kinase assay as described above.
Mock-transfected or HA-NDR1-expressing COS-1 cells were treated for 1 h with […], 50 microM BAPTA-AM, and […] or with solvent (0.1% DMF or 0.1% DMSO) alone. 12CA5 immunoprecipitates (out of 100 microgram protein extract) were then assayed using the peptide kinase assay for NDR1 kinase activity.
To test whether hMOB1 plays a role in NDR activation, myc-hMOB1 or the empty vector was cotransfected with HA-NDR1 in COS1 cells and treated with OA. 12CA5 immunoprecipitates were then assayed using the peptide kinase assay for HA-NDR kinase activity. […] GST-MOB and GST respectively was added to immunoprecipitated HA-NDR and kinase reaction were performed. The reactions were resolved on a 10% SDS PAGE and the radioactivity visualised by using a phosphoimager.

myc-hMOB1 = test: Co-immunoprecipitation of HA-NDR and myc-hMOB1 from COS-1 cells; format: binding, human; conditions: COS-1 cells treated with OA prior to lysis
Description: HA-tagged hNDR and myc-tagged hMOB1 were cotransfected in COS1 cells, which were stimulated with okadaic acid or solvent alone. After cell lysis and extract preparation, HA-NDR was immunoprecipitated and co-immunoprecipitated myc-hMOB1 detected or Myc-hMOB1 was immunoprecipitated and co-immunoprecipitated HA-NDR detected.
HA-NDR, wt and mutants, and myc-hMOB1 were cotransfected into COS-1 cells and the cells were treated with OA prior to lysis. HA-NDR was immunoprecipitated and the coimmunoprecipitated myc-hMOB1 detected. […] Furthermore, the two important in vivo phosphorylation sites of NDR, serine-281 in the activation segment and the hydrophobic motif site threonine-444 in the C-terminal regulatory domain were tested, as well as the threonine 74 site in the N-terminal regulatory domain, for their role in NDR-MOB interaction.
HA-NDR N-terminal point mutants and myc-mob1 were co-transfected into COS1 cells which were treated with OA prior to lysis. HA-NDR mutants were immunoprecipitated and coimmunoprecipitated myc-hMOB1 detected.
In this Example, the effect of treatment of COS1 cells with BAPTA-AM on the NDR-MOB Interaction was determined. HA-NDR and myc-MOB1 was cotransfected into COS1 cells and the cells were treated with BAPTA-AM and OA or the solvents alone prior to lysis. HA-NDR was immunoprecipitated and co-immunoprecipitated myc-MOB1 detected. The kinase activity of the HA-NDR immunoprecipitates was measured in a peptide kinase assay.

Substance | Specific activity of GST-NDR1 variants, −S100B (GST-NDR1) | Specific activity of GST-NDR1 variants, +S100B (GST-NDR1) | Specific activity of GST-NDR1 variants, CTRL (GST-NDR1) | kinase activity of HA-NDR1 variants, +OA (HA-NDR1) | kinase activity of HA-NDR1 variants, −OA (HA-NDR1) | interaction of HA-NDR variant with myc-hMOB1 (myc-hMOB1) | kinase activity of GST-NDR1 mutant (in words) (GST-NDR1; compared with wild type) | interaction of HA-NDR variant with myc-hMOB1 (myc-hMOB1; listed as threonine 74)
K118A: NDR1 kinase dead mutant, Lys 118 to alanine; GST fusion or HA-tagged | 0.272 | 0.222 | 0.158 | 0.0204 | 0.0107 | still able to interact with hMOB1 |  | 
T74A: NDR1 alanine mutant of phosphorylation residue Thr74; GST fusion or HA-tagged | 3.786 | 7.818 | 1.006 | 1.053 | 0.124 | complete absence of interaction with MOB1 | negligible reduction | not tolerated for the interaction with MOB
T444A: NDR1 alanine mutant of phosphorylation residue Thr444; GST fusion or HA-tagged | 1.92 | 3.974 | 0.564 | 0.6019 | 0.1067 | still interact with MOB1 |  | 
